Experimental data as given in patent US20140255415A1 (Novartis, published 2014).
Changes are numbered by the printed parent chain.

What was measured:
[1] = target: human LINGO-1 expressed on CHO-K1 cells (CHO-K1-hLINGO-1) (human) (UniProt Q96FE5); experiment: apparent KD, FACS saturation binding on CHO-K1-hLINGO-1 cells, IgG4 pre-incubated in FACS buffer
[2] = target: human LINGO-1 expressed on CHO-K1 cells (CHO-K1-hLINGO-1) (human) (UniProt Q96FE5); experiment: ratio of apparent KDs, FACS saturation binding on CHO-K1-hLINGO-1 cells, IgG4, without against with 50% human CSF
[3] = target: human LINGO-1 expressed on CHO-K1 cells (CHO-K1-hLINGO-1) (human) (UniProt Q96FE5); experiment: apparent KD, FACS saturation binding on CHO-K1-hLINGO-1 cells, IgG4, without 50% human cerebro-spinal fluid (control)
[4] = target: human LINGO-1 expressed on CHO-K1 cells (CHO-K1-hLINGO-1) (human) (UniProt Q96FE5); experiment: apparent KD, FACS saturation binding on CHO-K1-hLINGO-1 cells, IgG4, with 50% human cerebro-spinal fluid
[5] = target: human LINGO-1 expressed on CHO-K1 cells (CHO-K1-hLINGO-1) (human) (UniProt Q96FE5); experiment: apparent KD, FACS saturation binding on CHO-K1-hLINGO-1 cells, IgG4 pre-incubated in FACS buffer + 50% human serum
[6] = target: human LINGO-1 expressed on CHO-K1 cells (CHO-K1-hLINGO-1) (human) (UniProt Q96FE5); experiment: apparent KD, FACS saturation binding on CHO-K1-hLINGO-1 cells, IgG4 format
[7] = target: human LINGO-1 expressed on CHO-K1 cells (CHO-K1-hLINGO-1) (human) (UniProt Q96FE5); experiment: apparent KD, FACS saturation binding on CHO-K1-hLINGO-1 cells, IgG4 pre-incubated in FACS buffer + 2.6% BSA
[8] = target: T1, human LINGO-2 expressed on CHO-K1 cells (CHO-K1-hLINGO-2) (human, UniProt Q7L985 26-606); experiment: apparent KD, FACS saturation binding on CHO-K1-hLINGO-2 cells, IgG4 format
T1 construct: range 26-606; not shown: 2 amino acid residue linker
T1 sequence (looked up): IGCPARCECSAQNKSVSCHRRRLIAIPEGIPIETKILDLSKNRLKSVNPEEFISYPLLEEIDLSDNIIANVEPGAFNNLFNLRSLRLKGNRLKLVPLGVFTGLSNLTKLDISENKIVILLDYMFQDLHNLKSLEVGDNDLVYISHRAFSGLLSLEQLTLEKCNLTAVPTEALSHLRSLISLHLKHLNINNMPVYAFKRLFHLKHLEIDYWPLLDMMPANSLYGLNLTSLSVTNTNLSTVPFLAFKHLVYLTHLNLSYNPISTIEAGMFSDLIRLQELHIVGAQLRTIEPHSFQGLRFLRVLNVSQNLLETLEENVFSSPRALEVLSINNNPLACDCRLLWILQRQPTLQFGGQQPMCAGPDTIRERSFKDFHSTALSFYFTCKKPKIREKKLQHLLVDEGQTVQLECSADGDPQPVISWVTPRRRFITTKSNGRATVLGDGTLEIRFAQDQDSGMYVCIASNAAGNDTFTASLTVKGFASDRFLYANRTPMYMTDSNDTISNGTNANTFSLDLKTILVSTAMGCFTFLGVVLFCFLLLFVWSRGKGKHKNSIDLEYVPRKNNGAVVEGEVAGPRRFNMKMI

[9] = target: T2, rat LINGO-1 expressed on CHO-K1 cells (CHO-K1-rLINGO-1) (rat, UniProt A0A8I5ZPI2 34-614); experiment: apparent KD, FACS saturation binding on CHO-K1-rLINGO-1 cells, IgG4 format
T2 construct: range 34-614; not shown: 2 amino acid residue linker
T2 sequence: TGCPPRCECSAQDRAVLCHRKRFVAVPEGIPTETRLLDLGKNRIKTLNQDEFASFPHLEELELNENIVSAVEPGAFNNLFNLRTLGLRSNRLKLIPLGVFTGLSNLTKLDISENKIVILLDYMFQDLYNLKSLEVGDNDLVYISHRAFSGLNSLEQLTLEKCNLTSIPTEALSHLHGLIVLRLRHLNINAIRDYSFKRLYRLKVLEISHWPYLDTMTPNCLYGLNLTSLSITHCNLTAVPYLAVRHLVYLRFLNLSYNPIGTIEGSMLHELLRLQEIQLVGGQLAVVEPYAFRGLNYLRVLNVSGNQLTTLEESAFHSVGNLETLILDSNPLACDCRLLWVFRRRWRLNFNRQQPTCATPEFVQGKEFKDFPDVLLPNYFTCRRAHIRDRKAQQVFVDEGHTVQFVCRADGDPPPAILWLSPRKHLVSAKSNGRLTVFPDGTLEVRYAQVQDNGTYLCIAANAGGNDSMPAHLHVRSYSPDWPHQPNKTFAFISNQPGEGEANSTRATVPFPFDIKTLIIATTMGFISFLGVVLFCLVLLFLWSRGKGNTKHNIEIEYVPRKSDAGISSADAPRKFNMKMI
Procedure: (§1) Cell based affinity of anti-LINGO-1 specific antibodies is determined by FACS saturation binding experiments. The determination of the apparent KD values is carried out identical to the procedure described above using anti-LINGO-1 Fab antibodies.
(§2) In detail, CHO-K1-hLINGO-1, CHO-K1-cmLINGO-1 or CHO-K1-rLINGO-1 are detached from culture flasks by versene, washed with FACS buffer and resuspended in FACS buffer. Purified anti-LINGO-1 IgG4s are serially diluted in FACS buffer and spread into round bottom 96-well microtiter plates (NUNC™, Wiesbaden, Germany). For each concentration, duplicate wells are incubated with 1.25×10⁴ cells for 30-60 min on ice in a total volume of 100 μl. […] Using this assay the following apparent KD values can be determined (Table 3).

[10] = target: T3, cynomolgus monkey LINGO-1 expressed on CHO-K1 cells (CHO-K1-cmLINGO-1) (cynomolgus monkey, UniProt Q9N008 34-614); experiment: apparent KD, FACS saturation binding on CHO-K1-cmLINGO-1 cells, IgG4 format
T3 construct: range 34-614; also called Cynomolgus LINGO-1; not shown: 2 amino acid residue linker
T3 sequence (looked up): T2 sequence with G261S, V286M, A315V, H386R, S494P
Procedure: as §1, §2

B1: anti-LINGO-1 IgG4 antibody 4785 (antibody, V domains shown)
VH: QVQLQQSGPGLVKPSQTLSLTCAISGDSVSDNSAAWSWIRQSPGRGLEWLGLIYLRSKWDNDYAVSVKSRITINPDTSKNQFSLQLNSVTPEDTAVYYCARTGRADEFDVWGQGTLVTVSS
VL: DIVLTQPPSVSGAPGQRVTISCSGSSSNIGNNYVSWYQQLPGTAPKLLISRNSKRPSGVPDRFSGSKSGTSASLAITGLQSEDEADYYCSTYDTFSIVFGGGTKLTVLG
Question: With B1 as the binder, how does the Kd [1] read?
Answer: 80 pM

Question: What about the App. KD ratio w/o CSF:w/ CSF [2] of the same binder?
Answer: 0.76

Question: What about the Kd [3] of the same binder?
Answer: 190 pM

Question: What about the Kd [4] of the same binder?
Answer: 250 pM

Question: What about the Kd [5] of the same binder?
Answer: 60 pM

Question: What about the Kd [6] of the same binder?
Answer: 70 pM

Question: And the Kd [7]?
Answer: 50 pM

Question: What about the Kd [8] of the same binder?
Answer: 950 pM

Question: And the Kd [9]?
Answer: 70 pM

Question: And the Kd [10]?
Answer: 180 pM
